The source of these data is patent US20140227293A1 (TRUSTEES OF BOSTON UNIVERSITY, published 2014).

This data set concerns the molecule itself. The data set can be described thus: BS3 chemical cross-linking of PAE cells expressing IGPR-1 (confluent versus sparse), anti-IGPR-1 Western blot. Here is the method: To determine whether IGPR-1 is involved in cell-cell interaction inventors subjected PAE cells expressing IGPR-1 and ΔN-IGPR-1 to aggregation/cell-cell adhesion assay. […] To further establish role of IGPR-1 in cell-cell interaction, the inventors investigated dimerization of IGPR-1 particularly its possible trans-dimerization. Inventors reasoned that if cells are plated in confluent condition, IGPR-1 could form trans-dimerization and possibly cis-dimerization (see FIG. 9C). However, plating the cells in a sparse condition, IGPR-1 will be less able to form trans-dimerization.
(In western blotting, separated proteins are transferred to a membrane and probed.)

B1: immunoglobulin containing and proline rich receptor-1 (IGPR-1), human, full length, ectopically expressed in PAE cells (receptor)
chain: LSVQQGPNLLQVRQGSQATLVCQVDQATAWERLRVKWTKDGAILCQPYITNGSLSLGVCGPQGRLSWQAPSHLTLQLDPVSLNHSGAYVCWAAVEIPELEEAEGNITRLFVDPDDPTQNRNRIASFPGFLFVLLGVGSMGVAAIVWGAWFWGRRSCQQRDSGNSPGNAFYSNVLYRPRGPPKKSEDCSGEGKDQRGQSIYSTSFPQPAPRQPHLASRPCPSPRPCPSPRPGHPVSMVRVSPRPSPTQQPRPKGFPKVGEE
modifications: N-glycosylated (apparent 55 kDa, 31 kDa after PNGase F)
notes: Expressed from the retroviral vector pMSCV.puro in PAE (porcine aortic endothelial) cells; Used on intact cells (aggregation, adhesion, BS3 cross-linking) and as whole cell lysate (GST pull-down, co-immunoprecipitation, Western blot); also called IGRP-1; TMIGD2
Turning to B1, the binding result is recorded as “binds”.
